Measured values: the supplement of paper PMC6757056
± gives the standard deviation of the averaged measurements.

B1: library; a variant is named by its letters at N, in order (parent)
chain: GCUGUCACCGAGAAACUGUGAAGUAUAUCUUAAACCUGGGCACUUAAAAGAUAUAUGGAGUUAGUAGUGCAACCUGCUCGGUCUGAUGAGUCCNNNNNNGGACGAAACAGC

Experiments:
[1] = variants of: B1; assay: normalized RNA/DNA level without ligand (relative to sTRSVctl = 100) (log10 (% of sTRSVctl)); HEK293T; ligand: cyclic di-GMP (c-di-GMP-II aptamer); higher = less ribozyme self-cleavage, higher mRNA level; details: reporter: mCherry (pCS4076), ligand present: no
Summary of the method: (§1)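 Only sequences with at least 100 DNA reads were analyzed, from HEK293T cells transfected with 4 µg per 6-well well of ribozyme switch library plasmids 72 h before RNA extraction with EDTA. Any ligand was added 1 h before transfection. RNA level was defined as RNA over DNA reads, normalized to a spiked-in non-cleaving sequence or to the top sequences, then scaled and log-transformed. The top set was 25 sequences, and the scaling was ×100 followed by log10.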

[2] = variants of: B1; assay: normalized RNA/DNA level with ligand (relative to sTRSVctl = 100) (log10 (% of sTRSVctl)); HEK293T; ligand: cyclic di-GMP (c-di-GMP-II aptamer); ligand concentration (+) RNA-Seq: 1 mM; higher = less ribozyme self-cleavage, higher mRNA level; details: reporter: mCherry (pCS4076), ligand present: yes
Summary of the method: as §1

AUGAGG
normalized RNA/DNA level without ligand (log10) [1]: 1.55 ± 0.044
normalized RNA/DNA level with ligand (log10) [2]: 1.73 ± 0.085

CUCUUU
normalized RNA/DNA level without ligand (log10) [1]: 1.6 ± 0.071
normalized RNA/DNA level with ligand (log10) [2]: 1.76 ± 0.079

CUCUUC
normalized RNA/DNA level without ligand (log10) [1]: 1.73 ± 0.052
normalized RNA/DNA level with ligand (log10) [2]: 1.87 ± 0.082

GUCUUC
normalized RNA/DNA level without ligand (log10) [1]: 1.7 ± 0.015
normalized RNA/DNA level with ligand (log10) [2]: 1.87 ± 0.097

GUCUUU
normalized RNA/DNA level without ligand (log10) [1]: 1.7 ± 0.033
normalized RNA/DNA level with ligand (log10) [2]: 1.83 ± 0.092

GUCUUA
normalized RNA/DNA level without ligand (log10) [1]: 1.677 ± 0.0086
normalized RNA/DNA level with ligand (log10) [2]: 1.83 ± 0.15

UUGGAC
normalized RNA/DNA level without ligand (log10) [1]: 1.665 ± 0.0078
normalized RNA/DNA level with ligand (log10) [2]: 1.78 ± 0.08

AUGACG
normalized RNA/DNA level without ligand (log10) [1]: 1.59 ± 0.089
normalized RNA/DNA level with ligand (log10) [2]: 1.76 ± 0.086

AUGACA
normalized RNA/DNA level without ligand (log10) [1]: 1.581 ± 0.013
normalized RNA/DNA level with ligand (log10) [2]: 1.72 ± 0.14

CUGCCG
normalized RNA/DNA level without ligand (log10) [1]: 1.78 ± 0.011
normalized RNA/DNA level with ligand (log10) [2]: 1.92 ± 0.064

CUGCCA
normalized RNA/DNA level without ligand (log10) [1]: 1.613 ± 0.0037
normalized RNA/DNA level with ligand (log10) [2]: 1.76 ± 0.18

CUGCCU
normalized RNA/DNA level without ligand (log10) [1]: 1.64 ± 0.028
normalized RNA/DNA level with ligand (log10) [2]: 1.81 ± 0.15

CUCUGU
normalized RNA/DNA level without ligand (log10) [1]: 1.78 ± 0.062
normalized RNA/DNA level with ligand (log10) [2]: 1.91 ± 0.06

CUCUGG
normalized RNA/DNA level without ligand (log10) [1]: 1.81 ± 0.066
normalized RNA/DNA level with ligand (log10) [2]: 1.86 ± 0.14

CUGAAC
normalized RNA/DNA level without ligand (log10) [1]: 1.603 ± 0.0055
normalized RNA/DNA level with ligand (log10) [2]: 1.77 ± 0.084

CUGAAG
normalized RNA/DNA level without ligand (log10) [1]: 1.59 ± 0.018
normalized RNA/DNA level with ligand (log10) [2]: 1.73 ± 0.03

UUGCCC
normalized RNA/DNA level without ligand (log10) [1]: 1.83 ± 0.081
normalized RNA/DNA level with ligand (log10) [2]: 1.84 ± 0.2

UUGCCG
normalized RNA/DNA level without ligand (log10) [1]: 1.83 ± 0.058
normalized RNA/DNA level with ligand (log10) [2]: 1.91 ± 0.12

UUGCCU
normalized RNA/DNA level without ligand (log10) [1]: 1.746 ± 0.0023
normalized RNA/DNA level with ligand (log10) [2]: 1.89 ± 0.091

UUGCCA
normalized RNA/DNA level without ligand (log10) [1]: 1.8 ± 0.08
normalized RNA/DNA level with ligand (log10) [2]: 1.82 ± 0.13

UUGACG
normalized RNA/DNA level without ligand (log10) [1]: 1.77 ± 0.025
normalized RNA/DNA level with ligand (log10) [2]: 1.88 ± 0.1

UUGACU
normalized RNA/DNA level without ligand (log10) [1]: 1.75 ± 0.025
normalized RNA/DNA level with ligand (log10) [2]: 1.84 ± 0.11

UUCUUU
normalized RNA/DNA level without ligand (log10) [1]: 1.74 ± 0.024
normalized RNA/DNA level with ligand (log10) [2]: 1.9 ± 0.081

UUCUUC
normalized RNA/DNA level without ligand (log10) [1]: 1.78 ± 0.05
normalized RNA/DNA level with ligand (log10) [2]: 1.89 ± 0.16

UUCUUA
normalized RNA/DNA level without ligand (log10) [1]: 1.76 ± 0.095
normalized RNA/DNA level with ligand (log10) [2]: 1.87 ± 0.15

UUCUUG
normalized RNA/DNA level without ligand (log10) [1]: 1.73 ± 0.045
normalized RNA/DNA level with ligand (log10) [2]: 1.86 ± 0.11

GUGCCU
normalized RNA/DNA level without ligand (log10) [1]: 1.81 ± 0.04
normalized RNA/DNA level with ligand (log10) [2]: 1.87 ± 0.1

GUGCCC
normalized RNA/DNA level without ligand (log10) [1]: 1.782 ± 0.016
normalized RNA/DNA level with ligand (log10) [2]: 1.84 ± 0.099

GUGCCA
normalized RNA/DNA level without ligand (log10) [1]: 1.785 ± 0.015
normalized RNA/DNA level with ligand (log10) [2]: 1.9 ± 0.12

CUGCGC
normalized RNA/DNA level without ligand (log10) [1]: 1.823 ± 0.0074
normalized RNA/DNA level with ligand (log10) [2]: 1.92 ± 0.052

CUGCGU
normalized RNA/DNA level without ligand (log10) [1]: 1.723 ± 0.013
normalized RNA/DNA level with ligand (log10) [2]: 1.84 ± 0.1

UUGCGA
normalized RNA/DNA level without ligand (log10) [1]: 1.778 ± 0.01
normalized RNA/DNA level with ligand (log10) [2]: 1.88 ± 0.076

UUGCGC
normalized RNA/DNA level without ligand (log10) [1]: 1.74 ± 0.027
normalized RNA/DNA level with ligand (log10) [2]: 1.83 ± 0.072

UUGCGG
normalized RNA/DNA level without ligand (log10) [1]: 1.84 ± 0.045
normalized RNA/DNA level with ligand (log10) [2]: 1.94 ± 0.04

GUCUGG
normalized RNA/DNA level without ligand (log10) [1]: 1.68 ± 0.036
normalized RNA/DNA level with ligand (log10) [2]: 1.86 ± 0.049

GUGCAC
normalized RNA/DNA level without ligand (log10) [1]: 1.729 ± 0.0059
normalized RNA/DNA level with ligand (log10) [2]: 1.83 ± 0.17

GUGCAG
normalized RNA/DNA level without ligand (log10) [1]: 1.86 ± 0.06
normalized RNA/DNA level with ligand (log10) [2]: 1.89 ± 0.13

GUGCAA
normalized RNA/DNA level without ligand (log10) [1]: 1.64 ± 0.046
normalized RNA/DNA level with ligand (log10) [2]: 1.77 ± 0.084

CUGCAC
normalized RNA/DNA level without ligand (log10) [1]: 1.742 ± 0.0034
normalized RNA/DNA level with ligand (log10) [2]: 1.88 ± 0.1

CUGCAU
normalized RNA/DNA level without ligand (log10) [1]: 1.6242 ± 0.0013
normalized RNA/DNA level with ligand (log10) [2]: 1.77 ± 0.16

CUGCAG
normalized RNA/DNA level without ligand (log10) [1]: 1.73 ± 0.075
normalized RNA/DNA level with ligand (log10) [2]: 1.88 ± 0.11

GUGCUA
normalized RNA/DNA level without ligand (log10) [1]: 1.646 ± 0.0015
normalized RNA/DNA level with ligand (log10) [2]: 1.8 ± 0.091

GUGCUC
normalized RNA/DNA level without ligand (log10) [1]: 1.505 ± 0.0047
normalized RNA/DNA level with ligand (log10) [2]: 1.65 ± 0.17

GUGCUU
normalized RNA/DNA level without ligand (log10) [1]: 1.71 ± 0.025
normalized RNA/DNA level with ligand (log10) [2]: 1.84 ± 0.14

GUGCUG
normalized RNA/DNA level without ligand (log10) [1]: 1.75 ± 0.024
normalized RNA/DNA level with ligand (log10) [2]: 1.86 ± 0.12

AUGCGC
normalized RNA/DNA level without ligand (log10) [1]: 1.732 ± 0.016
normalized RNA/DNA level with ligand (log10) [2]: 1.86 ± 0.099

AUGCGU
normalized RNA/DNA level without ligand (log10) [1]: 1.679 ± 0.011
normalized RNA/DNA level with ligand (log10) [2]: 1.79 ± 0.099

AUGCGG
normalized RNA/DNA level without ligand (log10) [1]: 1.74 ± 0.024
normalized RNA/DNA level with ligand (log10) [2]: 1.82 ± 0.098

CUGACU
normalized RNA/DNA level without ligand (log10) [1]: 1.52 ± 0.05
normalized RNA/DNA level with ligand (log10) [2]: 1.75 ± 0.11

CUGACG
normalized RNA/DNA level without ligand (log10) [1]: 1.8 ± 0.028
normalized RNA/DNA level with ligand (log10) [2]: 1.9 ± 0.17

CUGACA
normalized RNA/DNA level without ligand (log10) [1]: 1.51 ± 0.086
normalized RNA/DNA level with ligand (log10) [2]: 1.7 ± 0.075

GUGAAC
normalized RNA/DNA level without ligand (log10) [1]: 1.5 ± 0.08
normalized RNA/DNA level with ligand (log10) [2]: 1.69 ± 0.13

UUGAAU
normalized RNA/DNA level without ligand (log10) [1]: 1.661 ± 0.0028
normalized RNA/DNA level with ligand (log10) [2]: 1.83 ± 0.095

UUGAAC
normalized RNA/DNA level without ligand (log10) [1]: 1.691 ± 0.0046
normalized RNA/DNA level with ligand (log10) [2]: 1.82 ± 0.11

GUGAUA
normalized RNA/DNA level without ligand (log10) [1]: 1.5 ± 0.034
normalized RNA/DNA level with ligand (log10) [2]: 1.7 ± 0.097

GUGAGG
normalized RNA/DNA level without ligand (log10) [1]: 1.61 ± 0.06
normalized RNA/DNA level with ligand (log10) [2]: 1.8 ± 0.093

GUGAGU
normalized RNA/DNA level without ligand (log10) [1]: 1.59 ± 0.053
normalized RNA/DNA level with ligand (log10) [2]: 1.77 ± 0.11

GUGAGC
normalized RNA/DNA level without ligand (log10) [1]: 1.51 ± 0.086
normalized RNA/DNA level with ligand (log10) [2]: 1.77 ± 0.041
